Experimental data published in article PMC10894483, “In silico design of multipoint mutants for enhanced performance of Thermomyces lanuginosus lipase for efficient biodiesel production” (Biotechnology for Biofuels and Bioproducts, 2024).

Substrate: CCCCCCCCCCCCCCCC(=O)Oc1ccc([N+](=O)[O-])cc1
Assay: colorimetric p-nitrophenol release, Michaelis-Menten fit
Type: biochemical, Thermomyces lanuginosus
Conditions: 45 °C, Tris-HCl pH 8.5, 10-100 mM pNPP, fermentation supernatant

B1: Thermomyces lanuginosus lipase (TLL; wt–TLL) (Thermomyces lanuginosus) (protein)
chain: EVSQDLFNQFNLFAQYSAAAYCGKNNDAPAGTNITCTGNACPEVEKADATFLYSFEDSGVGDVTGFLALDNTNKLIVLSFRGSRSIENWIGNLNFDLKEINDICSGCRGHDGFTSSWRSVADTLRQKVEDAVREHPDYRVVFTGHSLGGALATVAGADLRGNGYDIDVFSYGAPRVGNRAFAEFLTVQTGGTLYRITHTNDIVPRLPPREFGYSHSSPEYWIKSGTLVPVTRNDIVKIEGIDATGGNNQPNIPDIPAHLWYFGLIGTCL
notes: N-terminal 6xHis-tag, yeast secretion signal, secreted from Pichia pastoris GS115; fermentation supernatant used without purification (single band); 35 kDa
  Km: 3.61 ± 0.10 mM
